The source of these data is article PMC11574245, “Transplacental SARS-CoV-2 protein ORF8 binds to complement C1q to trigger fetal inflammation” (The EMBO Journal, 2024).

T1 sequence (P02745 23-245, chain 1 of 3): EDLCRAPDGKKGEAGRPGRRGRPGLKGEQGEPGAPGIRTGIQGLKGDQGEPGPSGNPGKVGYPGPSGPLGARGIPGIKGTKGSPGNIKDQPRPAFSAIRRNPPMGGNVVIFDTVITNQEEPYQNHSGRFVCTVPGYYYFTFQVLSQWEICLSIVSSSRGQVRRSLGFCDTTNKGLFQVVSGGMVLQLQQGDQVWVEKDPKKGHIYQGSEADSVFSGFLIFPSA
T1 sequence (P02746 28-253, chain 2 of 3): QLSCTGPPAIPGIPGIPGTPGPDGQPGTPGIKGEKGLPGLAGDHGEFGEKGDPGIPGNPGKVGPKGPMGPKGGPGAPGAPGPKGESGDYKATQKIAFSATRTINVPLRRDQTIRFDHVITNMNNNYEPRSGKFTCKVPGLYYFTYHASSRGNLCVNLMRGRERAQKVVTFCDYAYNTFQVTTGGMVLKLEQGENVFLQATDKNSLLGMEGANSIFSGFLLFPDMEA
T1 sequence (P02747 29-245, chain 3 of 3): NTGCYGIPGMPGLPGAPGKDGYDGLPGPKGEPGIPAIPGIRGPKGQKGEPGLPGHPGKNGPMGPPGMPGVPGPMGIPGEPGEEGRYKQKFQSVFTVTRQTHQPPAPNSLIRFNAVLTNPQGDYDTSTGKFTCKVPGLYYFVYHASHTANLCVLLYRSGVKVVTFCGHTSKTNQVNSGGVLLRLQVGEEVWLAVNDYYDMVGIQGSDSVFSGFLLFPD

The assay concerns the target T1, C1q Human protein (human, UniProt P02745 23-245; P02746 28-253; P02747 29-245).
T1 construct: human complement C1q subcomponent subunit A (A chain of the C1q complex); human complement C1q subcomponent subunit B (B chain of the C1q complex); human complement C1q subcomponent subunit C (C chain of the C1q complex); The methods call it recombinant human C1q; also called human C1q; purified human C1q protein; source: bought: Complement Technology (Cat. A099); copies: 6 + 6 + 6
As to the kind of experiment: ELISA; plates coated with each of 28 ORF8 peptides (1 mM in carbonate buffer 50 mM pH 9.6, overnight 2-8 °C); human C1q (5, 10, 25 or 100 nM in 3% BSA/TBST) 2 h at room temperature; detected with sheep polyclonal anti-C1Q-HRP. Conditions: both partners purified.
As to SLVVRCSFYEDFLEY [SARS-CoV-2 ORF8 peptide #25 (S97-Y111)], the binding result is on record as “binds”. With CPIHFYSKWYIRVGA [SARS-CoV-2 ORF8 peptide #10 (C37-A51)], the binding result is “binds”. The value for YIDIGNYTVSCLPFT [SARS-CoV-2 ORF8 peptide #19 (Y73-T87)] was “binds”.
